The supplement of paper PMC10567573

B1: NCF4 (parent)
chain: FVKILKDFPEEDDPTNWLRCYYYE
B2: PPP2R2B (parent)
chain: PSNRSFFSEIISSISDVKFSHSGR

Variants of: B1
Assay: protein stability index of a GFP-peptide fusion (GPS, HEK-293T) (PSI 1-6); higher = more stable
Conditions: c terminus: a fixed tail appended
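Also: lentivirally expressed fusions sorted by FACS into six bins by GFP to DsRed ratio, PSI derived from sequencing read proportions per bin multiplied by bin number.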

Protein stability index: each site, then its substitutions
R19: W 1.78; D 2.32; A 2.27; Y 3.01; F 2.28; K 4.32; S 1.79; Q 1.42; P 2.54; M 2.31; L 1.78; H 3.89; E 1.56; I 1.84; T 2.28; V 1.74; G 1.09; C 1.01; N 2.83
F8: Q 1.67; Y 4.09; M 3.67; I 1.25; C 1.25; K 1.8; G 1.18; E 1.14; L 1.15; W 3.2; H 3.3; R 1.69; P 1.68; S 2.92; V 2.59
N16: L 1.64; P 2.55; G 1.61; V 1.82; W 1.58; E 2.71; S 1.53; F 2.41; I 1.75; R 1.47; H 5.27; Q 2.05; D 1.7; Y 2.46; M 2.61; A 1.61; T 2.25; C 3.04; K 1.81
P14: Q 1.47; G 2.52; M 1.72; Y 1.3; V 1.84; S 2.5; K 1.9; F 1.24; E 3.08; R 3.25; I 1.15; W 2.21; C 1.19; H 3.08; D 2.76; T 1.11; A 2.72
D13: Y 2.81; E 2.69; Q 2.12; T 2.72; H 2.54; P 1.4; F 3.57; I 1.29; G 1.04; R 1.66; S 2.46; M 3.83; W 3.15; V 1.53; C 1.96
P9: K 1.37; F 1.1; Y 1.38; T 1.73; R 1.6; W 1.27; A 2.67; V 2.21; E 1.74; D 1.85; M 2.75; I 1.65; C 1.26; N 2.15
I4: G 1.9; L 2.02; H 2.17; M 2.39; S 2.7; T 1.54; F 3.08; K 3.09; P 2.15; W 3.72; N 2.76; Q 2.15
K6: P 1.56; M 1.65; V 3.01; Q 1.97; L 1.96; E 2.5; D 1.96; I 1.37; S 3.11; R 1.17; T 1.95; F 2.93; N 3.4
L18: C 1.58; A 2.1; V 2.34; R 1.9; P 2.42; K 1.55; T 2.24; D 1.94; E 2.13; G 1.92; S 2.15; Y 1.96; Q 1.73; H 1.66; M 1.72; N 1.86
Y23: P 3.56; H 1.51; Q 1.73; E 2.52; I 1.5; C 1.49; R 1.96; D 1.57; V 1.3; L 1.39; G 1.96; T 1.57; N 1.51; F 2.27; W 1.78; A 1.75; M 2.06; K 1.73; S 1.83
Y21: N 3.57; H 2.55; E 1.41; S 1.8; V 2.53; C 1.61; I 2.44; Q 1.93; W 1.89; G 1.06; L 2.62; D 2.02; A 1.1; K 2.47; R 1.9; M 1.75; F 1.91
L5: F 1.86; N 1.68; P 2.95; I 1.6; R 2.09; D 2.1; W 1.06; E 1.96; A 1.02; Y 2.23; T 2.17; H 3.08
Y22: N 1.56; K 1.61; A 3.02; T 2.94; P 1.41; I 1.75; C 1.92; S 1.38; F 1.65; D 2.29; H 1.82; W 2.28; M 2.33; L 2.24; G 2.64; E 2.1; V 1.03; Q 3.25; R 2.46
E11: Y 1.96; L 2.74; F 3.95; Q 2.98; A 1.68; S 1.71; M 1.01; K 1.39; D 1.88; T 2.96; H 3.15; W 2.04; R 1.75; I 2.4
D7: C 4.49; Q 1.07; P 2.49; V 2.69; L 2.16; W 1.07; E 1; H 1.77
D12: E 2.04; H 1.52; Y 2.35; S 2.4; G 2.33; T 1.37; C 2.14; P 1.03; M 2.39; Q 2.75; K 1.41
C20: M 2.02; F 2.03; P 1.23; N 2.74; Y 1.9; Q 2.03; L 1.69; R 2.12; G 2.06; E 2.12; S 1.96; H 1.84; W 1.5; A 1.58; D 1.79; V 1.72; K 2.32; T 2.38
E24: D 1.39; Q 2.5; I 2.39; N 1.5; K 1.99; R 1.51; H 2.4; T 1.23; C 3.79; P 2.12; W 1.6; A 2.33; V 2.32; F 2.3; S 1.98; L 2.95; M 2.05; G 1.54; Y 1.47
W17: E 1.91; L 1.74; Q 1.89; M 1.85; K 1.93; H 2.34; N 3.07; F 1.59; C 2.55; I 1.84; A 1.93; G 1.79; Y 2.4; D 1.91; R 1.52; P 1.54; T 1.85; S 1.52; V 1.31
T15: M 2.32; A 2.18; E 2.85; P 2.88; V 1.9; I 1.44; S 2.14; H 1.3; W 1.41; Q 2.02; R 3.22; D 1.79; Y 1.84; K 1.93; N 2.03; C 1.88; F 1.79; L 2.27; G 1.66
E10: M 2.93; R 1.7; Q 2.48; V 1.62; S 1.77; A 1.47; D 1.16; T 2.6; I 3.14

Variants of: B2
Assay: as above
Conditions: c terminus: a fixed tail appended

Protein stability index of substitutions, site by site:
P1: K 2.56; H 1.8; F 1.89; E 2.42; L 2.19; I 2.02; C 2.05; A 2.19; G 2.69; D 2.77
